Tested on: hippocampal proteins
Assay: DIA quantification proteomics, hippocampus of Mdga2+/- vs WT mice
Design: species or system mouse
Conditions: S3 Table, downregulated DEPs; for log2FC: Mdga2+/- vs WT mouse hippocampus (HET-HIP-VS-WT-HIP), SE, pvalue and adj_pvalue in own columns c3-c5; for Class: regulation class of the protein, HET-HIP-VS-WT-HIP
Method: The hippocampus of 1.5–2-month-old Mdga2^ +/− male mice and their WT littermate controls was collected and sent to the BGI company for DIA quantification proteomics and data analysis. Briefly, samples were lysed and sonicated. After centrifugation, the supernatant was taken for quantification. Equal amounts of proteins (100 μg) per sample were subjected to trypsin enzymatic hydrolysis. After dryness, 10 μg enzymatic peptides per sample were separated by high-pH fractionation into a total of 10 fractions using high-performance liquid chromatography (HPLC) and freeze-dried. Data-dependent acquisition (DDA) fractions and DIA samples were analyzed by nano-LC–MS/MS. DDA data was identified by Andromeda search engine within MaxQuant. Identified results were used by Spectronaut^TM for spectral library construction. For DIA data, Spectronaut^TM used the constructed spectral library information to complete deconvolution and extraction, and used the mProphet algorithm to complete analytical quality control for obtaining reliable quantitative results. The mass spectrometry proteomics data have been deposited to the ProteomeXchange Consortium via the PRIDE [62] partner repository with the dataset identifier PXD050810. DEPs between comparison groups were identified based on the quantitative results, using the fold change >1.1 and p-value <0.05 as the criteria. After retrieval from the UniProtKB database, identified DEPs were processed for GO analysis by using DAVID (https://david.ncifcrf.gov/home.jsp) and Metascape database (https://metascape.org/gp/index.html).

| Molecule | log2FC | Class |
| --- | --- | --- |
| sp¦Q80TS7¦DEND_MOUSE (protein, UniProt Q80TS7 1-710, looked up) Dendrin: MLDGPLFSEGPDSPRELQDEESGSCLWVQKSKLLVIEVKTISCHYSRRAPSRQSMDIQASYWARGPQSRTCRLRPGSPEPPPRRPWASRVLQEATNWRAGPPAEVRAREQEKRKAASQEREAKETERKRRKAGGARRSPLGQPRPEPRNALRAAQPTGFPVFSRPERFGQVGRAPRPSVLPQGDPGVAWAGPWGGRRPGPPSYEAHLLLRGSAGTAPRRRWDRPPPYVAPPSYEGPHRTLGTKRGPELSRAPTSSAPVPATTRTEGGRTKKRLDPRIYRDVLGAWGLRQGRGLLGGAPGCTAARARPESCKGAIEKSSGLVAAGLNSAGDSHSQGKTTGGPGTDAALSRSAISSPPRPVPRSRQHLRGSRKGKEGSEQIWLPTCWLASPKKPPVRHSQTLPRPWAPGGTGWKESLGQREGAEHETLEVWKVTRRAHTLPRISRGPAGREGIFVIDATCVVIKSQYVPTPRTQQGQLVPSGESCSVSDSLSQPKPCHEEEGEGAAANPSVCQKRLLSSRVLNQPSEGRECEAEVGQQGDSSLEERSSSGLGFPVGEVNPRDAPTQPGSQEHPTLGPAAPVCAGSLKGSEAAGVPRRAGGGWARTPGPYAGALREAVSRIRRHTAPDSDSDEAEDLSVHSGSSDGSDTDAPGASWRNERTLPALGNTRPREGGKTAGLSDSIREIVDVISQTEEGFIREDTRKTPQGNRERE | -1.4022 | Down |
| sp¦A3KGB4¦TBC8B_MOUSE (protein, UniProt A3KGB4 1-1114, looked up) TBC1 domain family member 8B: MWLKPEEVLLKNALKLWLMERSNEYFVLQRRRGYGEEGGGGLTGLLVGTLDSVLDSTAKVAPFRILHQTPDSQVYLSIACGANREEITKHWDWLEQNIMKTLSVFDSNEDITNFVQGKIRGLIAEEGKQSFAKEDDPEKFREALLKFEKSFGLPEQEKLVTYYSCSYWRGRVPCQGWLYLSTNFLSFYSFLLGSEIKLIISWDAISKLEKTSTVILTESIHVCSQGENHYFSMFLHINETYLLMEQLANYAIKRLFDKETFDNDPVLDDPLQITKRGLEYRAHSEQFKAFFRLPKEETLKEVHECFLWVPFSHFSSHGKMCISENYICFASQDGNLCSVIIPLREVLAIDKTDDSNRSVIISIKGKTAFRFSELKDFEQLVAKLRLKCRAASTQDDVSTEVAVSSDSTGPSENFEEQPLTCPKECSKTVNTEALMTVFHPQNLENLDSKMLKEKMKEQSWNILFSECGRGVSMFRTKKTRDLVVRGIPETLRGELWMLFSGAVNDMATNPGYYAEVVEQSLGTSNLATEEIERDLRRSLPEHPAFQSDTGISALRRVLTAYAYRNPKIGYCQAMNILTSVLLLYAKEEEAFWLLVAVCERMLPDYFNRRIIGALVDQAVFEELIRDHLPQLTDHMTDMTFFSSVSLSWFLTLFISVLPIESAVNVVDCFFYDGIKAILQLGLAILDYNLDKLLTCKDDAEAVTALNRFFDNVINKDSPLPSNVQQGSNISNEKSDHTKVDITDLIKESNEKYGSIRYEDIHSMRCRNRLYVIQTLEETTKQNVLRVVSQDVKMSLQELDELYVIFKKELFISCYWYLSCPGLKHHDPSLPYLEQYQIDCQQFRVLYHLLSPWAHSANRDSLALWTFRLLDENSDCLINFKEFSSAIDIMYNGSFTDKLKLLFKLHIPPAYTEVMSKTSSKGDELSTEELLYFSQLQVSKPADEKETESGRNSPEKGKGKIDIQAYLSQWQDELLKKEETIKDLPRMNQSQFIQFSKTLYNLFHEDPEEESLYQAIAIVTNLLLRMEEVGRKLHSPASSASTARDSGPSEGNAESSVKKDLPSPREEHQWSFAFEQILASLLNEPALVRFFERPLDLKAKLENAKSSQLRSRTKM | -1.359 | Down |
| sp¦Q71FD5¦ZNRF2_MOUSE (protein, UniProt Q71FD5 2-238, looked up) E3 ubiquitin-protein ligase …: GAKQSGPAANGRTRAYSGSDLPSGTGSGGGGADGARAARFAAPVSGAQQPSASAGAAAAAAAAASAPAAPRSRSLGGAVGSASGGRAAQSAFSIPSAGGGGGPYGSQDSVHSSPEDSVGARDRDRPAGGGPGGPRLVIGSLPAHLSPHLFGGFKCPVCSKFVPSDEMDLHLVMCLTKPRITYNEDVLSKDTGECAICLEELQQGDTIARLPCLCIYHKGCIDEWFEVNRSCPEHPSD | -1.4 | Down |
| sp¦Q8K0L9¦ZBT20_MOUSE (protein, UniProt Q8K0L9 1-741, looked up) Zinc finger and BTB …: MLERKKPKTAENQKASEENEITQPGGSSAKPALPCLNFEAVLSPAPALIHSTHSLTNSHAHTGSSDCDISCKGMTERIHSINLHNFSNSVLETLNEQRNRGHFCDVTVRIHGSMLRAHRCVLAAGSPFFQDKLLLGYSDIEIPSVVSVQSVQKLIDFMYSGVLRVSQSEALQILTAASILQIKTVIDECTRIVSQNVGDVFPGIQDSGQDTPRGTPESGTSGQSSDTESGYLQSHPQHSVDRIYSALYACSMQNGSGERSFYSGAVVSHHETALGLPRDHHMEDPSWITRIHERSQQMERYLSTTPETTHCRKQPRPVRIQTLVGNIHIKQEMEDDYDYYGQQRVQILERNESEECTEDTDQAEGTESEPKGESFDSGVSSSIGTEPDSVEQQFGAAAPRDGQAEPAQPEQAAEAPAESSAQPNQLEPGASSPERSNESEMDNTVITVSNSSDKGVLQQPSVNTSIGQPLPSTQLYLRQTETLTSNLRMPLTLTSNTQVIGTAGNTYLPALFTTQPAGSGPKPFLFSLPQPLTGQQTQFVTVSQPGLSTFTAQLPAPQPLASSAGHSTASGQGDKKPYECTLCNKTFTAKQNYVKHMFVHTGEKPHQCSICWRSFSLKDYLIKHMVTHTGVRAYQCSICNKRFTQKSSLNVHMRLHRGEKSYECYICKKKFSHKTLLERHVALHSASNGTPPAGTPPGARAGPPGVVACTEGTTYVCSVCPAKFDQIEQFNDHMRMHVSDG | -1.342 | Down |
| sp¦Q80TF3¦PCD19_MOUSE (protein, UniProt Q80TF3 22-1145, looked up) Protocadherin-19: LINLKYSVEEEQRAGTVIANVAKDAREAGFALDPRQASAFRVVSNSAPHLVDINPSSGLLVTKQKIDRDLLCRQSPKCIISLEVMSSSMEICVIKVEIKDLNDNAPSFPAAQIELEISEAASPGTRIPLDSAYDPDSGSFGVQTYELTPNELFGLEIKTRGDGSRFAELVVEKSLDRETQSHYSFRITALDGGDPPHMGTVGLSIKVTDSNDNNPVFGESTYSVSVPENSPPNTPVIRLNASDPDEGTNGQVVYSFYGYVNDRTRELFQIDPHSGLVTVTGALDYEEGHVYELDVQAKDLGPNSIPAHCKVTVSVLDTNDNPPIINLLSVNSELVEVSESAPPGYVIALVRVSDRDSGLNGRVQCRLLGNVPFRLQEYESFSTILVDGRLDREQHDQYNLTIQARDSGVPMLQSAKSFTVRITDENDNHPHFSKPYYQVIVQENNTPGAYLLSVSARDPDMGLNGSVSYQIVPSQVRDMPVFTYVSINPNSGDIYALRSFNHEQTKAFEFKVLAKDGGLPSLQSNATVRVIILDVNDNTPVITAPPLINGTAEVYIPRNSGIGYLVTVVKADDYDEGENGRVTYDMTEGDRGFFEIDQVNGEVRTTRTFNENSKPSYELIVVAHDHGKTSLSASALVLIYLSPALDAQESMGSVNLSLIFIIALGSIAGILFVTMIFVAIKCKRDNKEIRTYNCSNCLTITCLLGCFIKGQNSKCLHCISVSPNSEEQDKKAEEKVSLRGKRIAEYSYGHQKKSSKKKKISKNDIRLVPRDVEETDKMNVVSCSSLTSSLNYFDYHQQTLPLGCRRSESTFLNVENQNTRNTTASHIYHHSFNSQGPQQPDLIINGVPLPETENYSFDSNYVNSRAHLIKSSSTFKDLEGNSLKDSGHEESDQTDSEHDVQRSLYCDTAVNDVLNTSVTSMGSQMPDHDQNEGFHCREECRILGHSDRCWMPRNPMPTRSKSPEHVRNIIALSIEATAADVEAYDDCGPTKRTFATFGKDVSSHRAEERPILKGKRTVDVTICSPKVNSAIREAGNGCEAISPVTSPLHLKSPLPTKPSISYTVALAPPAHDLEHHANSGASRPSEAEPRGADNEKVMHEVNPIRKDGRDKESPSVKRLKDIVL | -1.393 | Down |
| sp¦Q9JJR9¦NRIP3_MOUSE (protein, UniProt Q9JJR9 1-240, looked up) Nuclear receptor-interacting …: MFYSGLLTEGGRKETDMREAASLRQQRRMKQAVQFIHKDSADLLPLDGLKKLGSSKDTQPHNILQRRLMETNLSKLRSTRVPWASKTNKFNQAKSEGLKKCEDEDMILVSCQCAGKDVKALVDTGCQYNLISSACVDRLGLKDHVKSHKHEGEKLSLPRHLKVVGQIEHLMITVGSLRLDCQAAVVDDNEKSLSLGLQTLRSLKCIINLDKHRLIVGKTDKEEIPFVETVSVNDDNTSEA | -1.366 | Down |
| sp¦Q9JK53¦PRELP_MOUSE (protein, UniProt Q9JK53 22-378, looked up) Prolargin: QPTRPKPGIRRKPKPRPTPRFPQAPEPAEPTDLPPPLPPGPPSVFPDCPRECYCPPDFPSALYCDSRNLRRVPVIPPRIHYLYLQNNFITELPLESFQNATGLRWVNLDNNRIRKVDQRVLGKLPSLAFLYMEKNQLEEVPSALPRNLEQLRLSQNLISRIPPGVFSKLENLLLLDLQHNRLSDGVFKADTFQGLKNLMQLNLAHNILRKMPPKVPQAIHQLYLDSNKIETIPNGYFKDFPNLAFIRMNYNKLSDRGLPKNSFNISNLLVLHLSHNKISNVPAISNKLEHLYLNNNSIEKINGTQICPNNLVAFHDFSSDLENVPHLRYLRLDGNFLKPPIPLDLMMCFRLLQSVVI | -1.413 | Down |
| sp¦O35449¦PRRT1_MOUSE (protein, UniProt O35449 1-306, looked up) Proline-rich transmembrane …: MSSEKSGLPDSVPHTSPPPYNAPQPPAEPPIPPPQTAPSSHHHHHHHYHQSGTATLPRLGAGGLASAAASAQRGPSSSATLPRPPHHAPPGPAAGAPPPGCATLPRMPPDPYLQETRFEGPLPPPPPAAAAPPPPAPAPTAQAPGFVVPTHAGAVGTLPLGGYVAPGYPLQLQPCTAYVPVYPVGTPYAGGTPGGPGVTSTLPPPPQGPGLALLEPRRPPHDYMPIAVLTTICCFWPTGIIAIFKAVQVRTALARGDLVSAEIASREARNFSFISLAVGIAAMVLCTILTVVIIIAAQHHENYWDP | -1.273 | Down |

Source: paper PMC11960969, “Mdga2 deficiency leads to an aberrant activation of BDNF/TrkB signaling that underlies autism-relevant synaptic and behavioral changes in mice” (PLOS Biology, 2025)
